Assay results as given in patent US7589065.

Experiments:
DnaK (Escherichia coli) = DnaK (Escherichia coli) (UniProt P0A6Y8); assay: cell-based or functional assay
Ala-Ala-Tyr-Ala-Ala = system: T1, Ala-Ala-Tyr-Ala-Ala
T1 sequence: AAYAA

Sequence of DnaK (Escherichia coli) (P0A6Y8 2-638 limits assumed): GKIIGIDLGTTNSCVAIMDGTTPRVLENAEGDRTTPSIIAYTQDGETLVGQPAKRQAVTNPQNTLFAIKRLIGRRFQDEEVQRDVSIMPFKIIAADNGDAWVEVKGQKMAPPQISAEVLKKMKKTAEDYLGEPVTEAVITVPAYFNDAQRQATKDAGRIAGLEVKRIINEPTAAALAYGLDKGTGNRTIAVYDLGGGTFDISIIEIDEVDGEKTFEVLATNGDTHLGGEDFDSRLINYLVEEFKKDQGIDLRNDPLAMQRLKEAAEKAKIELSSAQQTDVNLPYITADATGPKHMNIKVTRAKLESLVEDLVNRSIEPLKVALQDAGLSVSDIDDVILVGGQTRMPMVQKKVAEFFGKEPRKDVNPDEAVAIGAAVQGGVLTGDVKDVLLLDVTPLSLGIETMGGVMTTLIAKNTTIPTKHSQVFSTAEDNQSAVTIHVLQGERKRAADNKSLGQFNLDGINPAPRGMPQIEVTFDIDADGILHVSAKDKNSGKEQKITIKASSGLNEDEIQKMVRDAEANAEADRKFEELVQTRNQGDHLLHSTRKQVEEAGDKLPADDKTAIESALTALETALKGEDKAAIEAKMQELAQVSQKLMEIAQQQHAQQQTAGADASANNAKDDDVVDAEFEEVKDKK

Substance | IC50 of the inhibition of the APIase activity of DnaK (spectrophotometric Ala-Leu assay) (DnaK (Escherichia coli)) | relative intensity of the cross signal of the Ala-Tyr peptide bond (no addition: 3.50 ± 0.51) (relative intensity) (Ala-Ala-Tyr-Ala-Ala) | relative intensity of the cross signal of the Tyr-Ala peptide bond (no addition: 3.89 ± 0.32) (relative intensity) (Ala-Ala-Tyr-Ala-Ala)
substance P (peptide) | 76 µM | – | –
FKBP12 | – | 3.94 | 2.68
